Experiment: soluble on expression in E. coli; label from the status in PepcDB or PDB records

| Sequence | soluble on expression in E. coli |
| --- | --- |
| MVSSAVKCGICRGVDGKYKCPKCGVRYCSLKCYKDAAKHVHKESEQPRAGTEANVEVVNNDKIINSSLAMNKTLKTKAFDDIYQNSAELQELLKYNTVKFHLAKVYRILSSTVNDGSSGKMNSDLQKELAVNYLNTLRYGGIHYNEAIEEFCQILLDKLNAVKK | soluble |
| MVSSDVPKTQRALIFESYGGPLEIKQLPIPQPNEDELLVKMEYSGICHSDVHTWLGDFHYVSKCPMIGGHEGAGSVISVGSKVKNWQIGDKVGIKLVQGNCLNCEYCQTGHEPLCPHVWNIGVQKYGTFQEYATIRDVDAIKIPKSMNMAAAAPVLCGGVTAYKALKESEVKSGQIVAVTGAGGGLGSFAIQYARAMGMRVVAEDIVAHIREITDGGAHGVVNFAAAKVPMEKALEYVRKRGTVVFVGLAKDSKILVDTIPLIFNAVKIKGSIVGSRLDVNEAMDFVARGAVNVPLELVKLEDVAEVYTKMHDGKINSRVVVDFSL | not soluble |
| MVTEQEIEAIGKTLVDPKQPLQARFRALFTLRGLGGPDAISWISRGFEDSSALLKHELAYCLGQMRDVRAIPVLVGVLQDTSQEPMVRHEAGEALGAIGNPEVLGLLKQYSTDPVVEVAETCQLAVGRLEWLQQHPGEATCAGPYLSVDPAPPAAEQDVGRLREALLDEARPLFERYRAMFALRNVGGKEAALALAEGLQCGSALFRHEVGYVLGQLQHEAAVPGLAATLARTTESPMVRHECAEALGAIARPACLAALREHIEDPEQVVRESCEVALDMYEYESSQDFQYADGLERLRPPP | soluble |
| MVTFASGDMLADDLGRFDYVVAMDSLIYYTDADIAAALDRLGARTRHSVVFTVAPRTPFLMAFWTMGKLFPRSDRSPVMIPHPFQPLNEATGGRLVKVGRVSRGFYISECLEFRPLEHHHHHH | soluble |
| MVTLTTNTEGATIYYTLDGSNPTNKSVRYNGRIVVNENSVIKAIAEKEGLTSSAISTFSFVIVNNEPVRIHDIQGKSHLSPYNGKKVYNVEGVVTALDKNGFYIEDNQPDNDPATSEGMYVYKKDANVAVGDLIQVDGVVEEYVGPGYAERFDTDLTTTEIKASRVVVIAKDQVLPAPIVLGENGVKIPDQIIDNDAFGLFDPNEDAIDFYESVEGMRVTMPTPKIIAPQKNGNLYVTVKNGGNKVVTKYGTPVLDENQLNPERLSVKVPRDYVAKVGDTFTGDITGVVGYDYGSFRIAPITELPSVVDGGFKQIGANIQPRLDKLEHHHHHH | soluble |
| MVTQTNPVPVTYPTDAYIPTYLPDDKVSNLADLKKLIEMDSRLDLYLTRRRLDTSINLPTNTKTKDHPPNKEMLRIYVYNTTESSPRSDSGTPADSGKTTWTLRIEGKLLHESANGKHPFSEFLEGVAVDFKRLKPLGMGKKRKRDSSLSLPLNLQQPEYNDQDSTMGDNDNGEDEDSAEAESREEIVDALEWNYDENNVVEFDGIDIKRQGKDNLRCSITIQLRGVDGGKVQYSPNLATLIGMQTGSVNDAVYSIYKYILINNLFVTEQTEAQDGSNDAEDSSNENNNKNGAGDDDGVEGSTPKDKPELGEVKLDSLLQKVLDTNAAHLPLMNVVQTVNKLVSPLPPIILDYTIDLSKDTTYGATTLDVDVSHILHQPQPQPNLQKEEETDAEDTAKLREITKLALQLNSSAQKYQFFHELSLHPRETLTHYLWSSKQNELVLQGDQYFNEDAARTSDIYSNNNNDRSLMGNISLLYSQGRL | soluble |
| MVVEMLGKLKEKLQSFIRRVEENVEKEEDEAKKKGLLDKILMIEIKEKDIEEALEDLELELLEADVALEVVDELKDRIKRNLVGKKVRIGTNKEKIIEEAVRKAVLEILTPEKKMDLLEEIKKAEKPYVILFVGFNGSGKTTTIAKLAHWLKKNGFSVVIAASDTFRAGAIEQLEEHAKKVGVKVIKHKYGADPAAVAYDAIQHAKARGIDVVLIDTAGRSETNRNLMDEMKKIARVTKPNLVIFVGDSLAGNAIVEQARQFNQAVKIDGVILTKLDADARGGAALSISHVINAPILFVGIGQGYEDLIPFDERWFVEKILGEESA | soluble |
| MVVIANAHNELIHDAVLDYYGKRLATCSSDKTIKIFEVEGETHKLIDTLTGHEGPVWRVDWAHPKFGTILASCSYDGKVLIWKEENGRWSQIAVHAVHSASVNSVQWAPHEYGPLLLVASSDGKVSVVEFKENGTTSPIIIDAHAIGVNSASWAPATIEEDGEHNGTKESRKFVTGGADNLVKIWKYNSDAQTYVLESTLEGHSDWVRDVAWSPTVLLRSYLASVSQDRTCIIWTQDNEQGPWKKTLLKEEKFPDVLWRASWSLSGNVLALSGGDNKVTLWKENLEGKWEPAGEVHQGGGGSGGGGATSKEFDGPCQNEIDLLFSECNDEIDNAKLIMKERRFTASYTFAKFSTGSMLLTKDIVGKSGVSIKRLPTELQRKFLFDDVYLDKEIEKVTIEARKSNPYPQISESSLLFKDALDYMEKTSSDYNLWKLSSILFDPVSYPYKTDNDQVKMALLKKERHCRLTSWIVSQIGPEIEEKIRNSSNEIEQIFLYLLLNDVVRASKLAIESKNGHLSVLISYLGSNDPRIRDLAELQLQKWSTGGCSIDKNISKIYKLLSGSPFEGLFSLKELESEFSWLCLLNLTLCYGQIDEYSLESLVQSHLDKFSLPYDDPIGVIFQLYAANENTEKLYKEVRQRTNALDVQFCWYLIQTLRFNGTRVFSKETSDEATFAFAAQLEFAQLHGHSLFVSCFLNDDKAAEDTIKRLVMREITLLRASTNDHILNRLKIPSQLIFNAQALKDRYEGNYLSE | soluble |
| MVVMSKVLLNIGCADVDKPGYINVDARKTKVTHLVSNAWDLDCFEENSVHEIYSRHMLEHLNPEYAKLALQKWFYILEPEGKLVVIVPDIEFHARQLLGVSRSSFGDQMEHAFAGFWGWREKERGGSDFDAHQWGYTVATLENEIGAVGFERIERVVEGVDSEPWHLQMTARKPMTSLCCPMDFRGPFPLEHHHHHH | soluble |
| MVVPGKNSTISPDYFTASQTSPLDMMKFPSPGSSKRYDNGGGIGLGIVAALEKSSIGINPVCHTGAGSKGFDLARYSKRFQFAAGIDLSDSEEYTCVTTRDGLTKVYYKEEEFEFGHNLLNGDQRWRKPIEIAEESPAKERRVLRDCPDFLTSCCLCKKKLQGKDIYMYKGDEGFCSKECRSLKIMEDSLKEQHKLTSVEVLTGEEIASPGIFLI | soluble |
| MVVSIITPLYKVEDFIARCADSLFRQSYTEIEYIFVDDCSSDRSVEVLLQVAERYPQLQQQIRILHHESNRGVAAARETGLAAATGEYVYWVDADDWIEPDAIEKMVVRSEQGQKDIIACGWYLCFRQNERRMPMPCYADAETALRGMLSGTMRWNLWLYMIKRDLYLMNDIHFMEGENVGEDMLVLIKLFSHAKSIGFVKDAFYHYVKQNENSLTRLSPEQQMKRQMRNLQAATDYLVTHFIGKYEKEINFFKLNAKMPLLISNDKNSYRTWTACFPEANKYIMANKRQTLRMRLVQLMAAKRQFWLVELYYQLVFKFVYGILYK | not soluble |
| MVVSSKMDIFNELESQVRSYSRSFPTIFTKSKGYKLWDVDGKEYIDFFSGAGALNYGHNDDKMKQVLIDYLLEDGIIHSLDMGTSAKVNFLKHFNKIILEPRDLNYKIMFPGPTGTNSVESALKIARKVTGRTNIISFSNAFHGMSLGSLSITSNHFKRKGAGVPLNNSIIMPYENYLDSLNSLSYLEKVLGDSGSGVALPAAIILETVQGEGGLNTASSQWLKGIDRLCKKYNILLIVDDIQAGCGRTGTFFSFEPASIKPDIICLSKSISGIGLPMAITLIKPEYDKWEPGEHNGTFRGNNLAFLAATEALSYWKDIEFINALKWKSEKITSFLNEICLKYPQLQGEVRGRGFMQGIACNTFGIAKKICSVAFENGLIIETSGPNDEVIKLLPSLTIDLEGLSKGLEMLEDSISTILKEVTH | not soluble |
| MVWLANPERYGQMQYRYCGKSGLRLPALSLGLWHNFGHVNALESQRAILRKAFDLGITHFDLANNYGPPPGSAEENFGRLLREDFAAYRDELIISTKAGYDMWPGPYGSGGSRKYLLASLDQSLKRMGLEYVDIFYSHRVDENTPMEETASALAHAVQSGKALYVGISSYSPERTQKMVELLREWKIPLLIHQPSYNLLNRWVDKSGLLDTLQNNGVGCIAFTPLAQGLLTGKYLNGIPQDSRMHREGNKVRGLTPKMLTEANLNSLRLLNEMAQQRGQSMAQMALSWLLKDDRVTSVLIGASRAEQLEENVQALNNLTFSTKELAQIDQHIADGELNLWQASSDK | soluble |
| MVYKNILVGLDGSSQADNAFKVACGLANALSADLHPIWIVNRDRGMDSSFGVNEDFYRDQYHQVQDKLVSYVEDAKKAGLKVTGEALVGNIKLVLANEYPKEHGIDLIVLGNTGLNTVEKLVVGSHTSYVIRNSACDVLVVK | not soluble |
| MVYSVPMMCAQDLRRSAMLDVVVAGGGYVGLSAAVAIKQAAPHLNVQVIEAAPDDVWKKDVRASAVIAAATRMLDVFGIWNEIEPEAQPIHKMVVTDSKTADPVRPVFLTFDGAVEEGRPFAHMVPNVAMVSALRGLCERIGIKIRHGISVSGFTAGPQSTAITLSDGTSLEARLLIACDGVRSALRDMAGIKTVHWAYDQSGIVTTVEHERPHEGCAEEHFLPSGPFAVLPLKGNRSSLVWTERTADAVRLVASDDLVFEEELERRFGHKLGPVRPVGPRRAFPLGLTLARSFVAPRFALAGDAAHGIHPISGQGLNLGFKDVAALAETVVEADRLGLDIGSLNVLERYQSWRRFDTLRMGVTTDVLNRLFSNDVGPIRVMRDFGLGVVDRLPGLKSYFIGQAAGTTDANAPRLLAGEALLEHHHHHH | not soluble |
| MWKTASDKGLGHLLRDVWSLLNEEERELLDKEIQPFPCKKASTVFSEGDIPNNLFYLYEGKIKILREGVYGRFHISRIVKPGQFFGMRPYFAEETCSSTAIAVENSKVLAIPVEAIEALLKGNTSFCRYFLKALAKELGYAERRTVTLTQKHVRGRLAETLLILKENFGFENDGATLSIYLSREELATLSNMTVSNAIRTLSTFVSERMLALDGKRIKIIDCDRLQKTARSG | soluble |
| MWLGYMNKSIPTTRKTRTFKAMSIEFSAPAKMKIEVWSDIMCPFCYIGKKRLDDALSTFDQAGRIEVEYKSFELMPGLETHPLRSDVEYLADAKGMSLEQARQMNGQVQAMAQATGLEMNPDETIAANTINAHRLTHFAKAHGKQQEVAQELFKAHFVDGKNVDDLDVLVSIAAEVGLDASAAREALESDVYTNEVQQDVHEARQLGVQGVPFFVFDRKYAINGAQQEEVFTGTVEKAFEEWAAENPVSPFEVIDGQSCSVDGTCN | not soluble |
| MWRSSLMCLPDTSWGAMETTFVLDALEQALWARRPSGTVHHSDKGSQYVSLAYTQRLKEAGLLASTGSTGDSYDNAMAESINGLYKAEVIHRKSWKNRAEVELATLTWVDWYNNRRLLERLGHTPPAEAEKAYYASIGNDDLAA | not soluble |
| MWTDAGGQVHEAASGDVRIASLVPSITELLFDLGLADQLVARTGFCIHPEPAVRAVAKVGGTKDVKLDRLRALAPTHVVVNIDENRRETVDEIRTFVPHVIVTHPCAPEDNLALYRLLGGIFGRRPQAEALVGQLRGELDAIQAQTWPARRVLYAIWQDPWMTVSRATYISRMLALVNWATWPDDADTSDTPAACVDGDCSRPNAPGERYPTFRWSDALVRELDAVLLSTEPYRFTEDHADALERQIGKPVLLVDGEMLSWYGSRAVAGARYLRSLAQGFLEHHHHHH | soluble |
| MWTNTFQEGLKIVGENISLSLPDGRQELFRLTDGAISSDATTGTLSKDQAGWRYDYRDGTSSLFDVQGRLIQRKVRGQVITITYPNLSTTKAKDGFGNTLTVSWNATKQPYLVDYNGSLKVEYLYDGGARLVSKKTTSQGLNRTRKYLYADSGNAGLMVGIIDEQGTRYATWTYDNQGRAISSEHANGAEKVSLAYNDDGSTTVTNEYGKQATYRFQVIQGIKRIVAIEGQPSPNCPSSNSTFTYDDQGLLTSKRDNNGNLTTYQYNARGLETSRTEAAGTAQARTITTDWHPTLFLPVQVSEPGRITRYQYDAEGRKTGETVTTR | not soluble |

From the DeepSol protein solubility set
